These are literature values, as cited in paper PMC3413252.

For one series, the target named is surface IL6 receptor (UniProt P08887).
The next series concerns the target soluble IL6 receptor (UniProt P08887).

Chain of IL6 (P05231 30-212): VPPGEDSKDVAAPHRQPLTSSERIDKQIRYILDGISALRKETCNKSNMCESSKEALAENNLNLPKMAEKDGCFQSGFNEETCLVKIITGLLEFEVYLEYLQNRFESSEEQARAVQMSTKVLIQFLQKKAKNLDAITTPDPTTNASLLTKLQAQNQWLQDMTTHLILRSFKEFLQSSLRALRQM

As for IL6 (from UniProt P05231), the Kd – broadly, the constant that tells how readily two partners part at equilibrium – in the series with surface IL6 receptor is 0.1 nM; with soluble IL6 receptor, 30 nM.
